According to PMC3580015 (Archives of biochemistry and biophysics, 2013):
Several values for one entry are separate records, joined by “and”; a condition that tells them apart may be missing. Equal entries are not always repeated.

Molecular target: the molecule itself
Assay: native gel or EMSA

B1: full length rat phenylalanine hydroxylase (PAH) (enzyme, UniProt P04176 1-453, looked up)
chain: MAAVVLENGVLSRKLSDFGQETSYIEDNSNQNGAISLIFSLKEEVGALAKVLRLFEENDINLTHIESRPSRLNKDEYEFFTYLDKRTKPVLGSIIKSLRNDIGATVHELSRDKEKNTVPWFPRTIQELDRFANQILSYGAELDADHPGFKDPVYRARRKQFADIAYNYRHGQPIPRVEYTEEEKQTWGTVFRTLKALYKTHACYEHNHIFPLLEKYCGFREDNIPQLEDVSQFLQTCTGFRLRPVAGLLSSRDFLGGLAFRVFHCTQYIRHGSKPMYTPEPDICHELLGHVPLFSDRSFAQFSQEIGLASLGAPDEYIEKLATIYWFTVEFGLCKEGDSIKAYGAGLLSSFGELQYCLSDKPKLLPLELEKTACQEYSVTEFQPLYYVAESFSDAKEKVRTFAATIPRPFSVRYDPYTQRVEVLDNTQQLKILADSINSEVGILCNALQKIKS
For B1, the “stoichiometry N” value was 4 and 2.

B2: full length human phenylalanine hydroxylase (PAH) (enzyme, UniProt P00439 1-452, looked up)
chain: MSTAVLENPGLGRKLSDFGQETSYIEDNCNQNGAISLIFSLKEEVGALAKVLRLFEENDVNLTHIESRPSRLKKDEYEFFTHLDKRSLPALTNIIKILRHDIGATVHELSRDKKKDTVPWFPRTIQELDRFANQILSYGAELDADHPGFKDPVYRARRKQFADIAYNYRHGQPIPRVEYMEEEKKTWGTVFKTLKSLYKTHACYEYNHIFPLLEKYCGFHEDNIPQLEDVSQFLQTCTGFRLRPVAGLLSSRDFLGGLAFRVFHCTQYIRHGSKPMYTPEPDICHELLGHVPLFSDRSFAQFSQEIGLASLGAPDEYIEKLATIYWFTVEFGLCKQGDSIKAYGAGLLSSFGELQYCLSEKPKLLPLELEKTAIQNYTVTEFQPLYYVAESFNDAKEKVRNFAATIPRPFSVRYDPYTQRIEVLDNTQQLKILADSINSEIGILCSALQKIK
B2 was tested, and the “stoichiometry N” value was 4 and 2.
